{"source": "patent US8013123B2", "about": "(B.R.A.H.M.S. GmbH, priority 2004, dated 2011)", "key": {"[1]": {"test": "Stability of proenkephalin fragments and enkephalins ex vivo (plasma, liquor)", "format": "in vitro ADME", "from_the_text": "In one embodiment the invention is based on and uses the discovered long term stability of proenkephalin and enkephalin-fp ex vivo in plasma (FIG. 3a). […] Proenkephalin and enkephalin-fp are stable as well in liquor."}, "B- and T-lymphocytes": {"system": "B- and T-lymphocytes", "settings": "cited from earlier work"}, "[2]": {"system": "gram-positive bacteria like Streptococcus aureus, Bacillus megaterium and Micrococcus luteus", "settings": "cited from earlier work"}, "[3]": {"system": "gram-negative bacteria like Escherichia coli", "settings": "cited from earlier work"}}, "note": "Ends that are not written are not given here.", "data": [{"molecule": "DAEEDDSLANSSDLLKELLETGDNRERSHHQDGSDNEEEVS [enkephalin-fp]", "values": [{"measurement": "half-life", "setting": "[1]; ex vivo in plasma", "result": "> 24", "unit": "h"}, {"measurement": "stability in liquor", "setting": "[1]", "result": "stable"}]}, {"molecule": "methionine enkephalin [Met-ENK]", "values": [{"measurement": "proliferation", "setting": "B- and T-lymphocytes", "result": "stimulates the proliferation"}]}, {"molecule": "Synenkephalin: PENK-A derived peptide with antibacterial properties (peptide, UniProt P01210 25-97, looked up, Synenkephalin) Synenkephalin: ECSQDCATCSYRLVRPADINFLACVMECEGKLPSLKIWETCKELLQLSKPELPQDGTSTLRENSKPEESHLLA", "values": [{"measurement": "antibacterial function", "setting": "[2]", "result": "antibacterial properties"}, {"measurement": "antibacterial function / growth inhibition", "setting": "[3]", "result": "antibacterial properties"}]}, {"molecule": "proenkephalin: precursor of the enkephalins, Sequence ID 1, including its fragments (protein) ECSQDCATCSYRLVRFADINFLACVMECEGKLPSLKIWETCKELLQLSKPELPQDGTSTLRENSKPEESHLLAKRYGGFMKRYGGFMKKMDELYPMEPEEEANGSEILAKRYGGFMKKNAEEDDSLANSSDLLKELLETGDNRERSHHQDGSDNEEEVSKRYGGFMRGLKRSPQLEDEAKELQKRYGGFMRRVGRPEWWMDYQKRYGGFLKRFAEALPSDEEGESYSKEVPEMEKRYGGFMRF", "values": [{"measurement": "stability in liquor", "setting": "[1]", "result": "stable"}, {"measurement": "in vivo half-life", "setting": "In vivo half-life", "result": "about 24 hours"}]}]}
